According to patent US20120184457A1, “Modulation of miRNA Activity” (Cambridge Enterprise Limited, priority 2009, published 2012):

Legend:
ZCCHC11 = molecular target: T1, ZCCHC11 (Homo sapiens, UniProt Q5TAX3); test: Screening assay for ZCCHC poly(U) polymerase inhibitors: in vitro uridylation of 5'-end-labeled pre-let-7; type: biochemical
T1 construct: expressed in transfected cells; host or cells: HEK293T
Description: HEK293T cells were transfected with pHA-FLAG-ZCCHC11. After 48 hrs cells were lysed. 50 μl of the supernatant was incubated with 5 μl of pre-washed anti-FLAG antibody conjugated to agarose beads (Sigma) and incubated for 2 hrs at 4° C. Agarose-beads were washed twice with lysis buffer and twice with buffer D. For in vitro uridylation, agarose beads were incubated in a 30 μl reaction containing 3.2 mM of MgCl2, 1 mM of DTT and 0.25 mM of rUTP, 5 mM of test compound and 5′-end-labeled pre-let-7 of 1×10^4-1×10^5 cpm, for 20 min at 37° C. RNA was purified by Trizol extraction and isopropanol precipitated. Reactions were analysed in a 12% urea polyacrylamide gel.

[1] = test system: recombinant GST-LIN-28 (C. elegans LIN-28 fused to glutathione-S-transferase) [GST: P08515]
[2] = molecular target: T2, LIN-28 (GST-LIN-28) (Caenorhabditis elegans) (UniProt P92186); test: EMSA; conditions: estimated; 50 mM Tris pH 7.6, 100 mM NaCl, 5 mM MgOAc2, tRNA competitor, room temperature
T2 sequence: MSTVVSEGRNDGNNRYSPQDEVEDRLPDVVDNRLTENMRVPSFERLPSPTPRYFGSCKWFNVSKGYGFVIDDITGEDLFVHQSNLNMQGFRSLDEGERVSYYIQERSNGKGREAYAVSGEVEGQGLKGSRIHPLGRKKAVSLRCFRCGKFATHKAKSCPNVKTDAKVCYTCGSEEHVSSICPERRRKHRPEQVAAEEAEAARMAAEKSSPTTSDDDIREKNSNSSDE

T1 sequence (Q5TAX3 whole entry): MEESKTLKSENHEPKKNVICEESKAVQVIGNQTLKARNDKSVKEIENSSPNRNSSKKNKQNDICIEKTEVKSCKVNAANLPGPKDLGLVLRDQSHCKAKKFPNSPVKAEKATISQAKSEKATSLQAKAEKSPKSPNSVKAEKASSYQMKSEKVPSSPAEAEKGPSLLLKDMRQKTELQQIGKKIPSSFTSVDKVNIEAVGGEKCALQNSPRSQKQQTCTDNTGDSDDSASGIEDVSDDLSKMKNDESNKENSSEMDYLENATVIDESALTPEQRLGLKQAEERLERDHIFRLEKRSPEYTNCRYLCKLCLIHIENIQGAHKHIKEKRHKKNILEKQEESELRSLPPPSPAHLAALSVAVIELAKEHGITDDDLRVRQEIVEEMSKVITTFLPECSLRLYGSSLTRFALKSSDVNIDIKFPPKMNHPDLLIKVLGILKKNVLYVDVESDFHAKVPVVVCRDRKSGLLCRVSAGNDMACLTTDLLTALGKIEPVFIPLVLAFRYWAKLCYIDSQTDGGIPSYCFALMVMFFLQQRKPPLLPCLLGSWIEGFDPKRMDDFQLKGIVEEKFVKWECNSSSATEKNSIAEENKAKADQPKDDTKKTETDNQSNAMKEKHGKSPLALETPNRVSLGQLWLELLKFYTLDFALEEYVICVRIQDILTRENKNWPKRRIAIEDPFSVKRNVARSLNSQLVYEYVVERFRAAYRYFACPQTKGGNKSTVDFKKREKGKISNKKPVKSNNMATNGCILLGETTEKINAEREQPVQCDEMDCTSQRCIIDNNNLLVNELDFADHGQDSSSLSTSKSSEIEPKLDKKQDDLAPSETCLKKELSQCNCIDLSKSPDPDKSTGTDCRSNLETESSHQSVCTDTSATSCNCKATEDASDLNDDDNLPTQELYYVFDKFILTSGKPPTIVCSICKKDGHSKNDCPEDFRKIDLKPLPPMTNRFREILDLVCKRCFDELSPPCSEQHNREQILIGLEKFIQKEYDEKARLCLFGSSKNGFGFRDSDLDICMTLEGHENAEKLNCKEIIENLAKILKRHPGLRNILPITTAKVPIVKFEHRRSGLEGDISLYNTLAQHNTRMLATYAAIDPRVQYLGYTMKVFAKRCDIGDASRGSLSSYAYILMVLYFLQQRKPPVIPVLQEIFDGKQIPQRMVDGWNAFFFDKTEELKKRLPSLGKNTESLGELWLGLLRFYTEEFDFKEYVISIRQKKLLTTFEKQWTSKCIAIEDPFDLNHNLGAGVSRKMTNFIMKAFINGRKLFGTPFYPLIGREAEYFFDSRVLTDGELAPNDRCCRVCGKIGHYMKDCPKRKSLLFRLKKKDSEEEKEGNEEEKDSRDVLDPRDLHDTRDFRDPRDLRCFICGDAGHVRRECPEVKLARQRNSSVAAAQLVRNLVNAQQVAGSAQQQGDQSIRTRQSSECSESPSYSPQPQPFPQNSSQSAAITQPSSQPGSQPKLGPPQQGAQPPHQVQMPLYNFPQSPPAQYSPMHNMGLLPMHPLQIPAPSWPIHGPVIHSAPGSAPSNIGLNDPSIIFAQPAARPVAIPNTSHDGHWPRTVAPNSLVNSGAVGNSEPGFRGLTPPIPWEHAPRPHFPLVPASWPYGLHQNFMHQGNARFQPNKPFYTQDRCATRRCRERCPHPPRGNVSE
Chain of recombinant GST-LIN-28 (C. elegans LIN-28 fused to glutathione-S-transferase) [GST: P08515] (P08515 whole entry, looked up, the tested form may be a part): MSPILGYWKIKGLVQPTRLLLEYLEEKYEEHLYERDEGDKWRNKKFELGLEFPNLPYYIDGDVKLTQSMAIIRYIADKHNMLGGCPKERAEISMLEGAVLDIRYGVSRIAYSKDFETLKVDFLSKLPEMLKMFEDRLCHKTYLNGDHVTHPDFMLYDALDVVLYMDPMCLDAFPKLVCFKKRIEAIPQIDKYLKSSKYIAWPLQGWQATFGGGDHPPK

uridine 5′-diphosphoglucuronic acid (UDP-GlcA) [compound 1]
uridylation activity of FLAG immunoprecipitates of ZCCHC11 (ZCCHC11; FLAG immunoprecipitates, 5 mM of test compound, 20 min at 37° C., FIG. 15b): reduces the uridylation activity | uridylation activity of whole cell extracts (endogenous and HA-FLAG-ZCCHC11 uridylyl activities) (ZCCHC11; whole cell extracts of HEK293T cells transfected with pHA-FLAG-ZCCHC11, FIG. 15a): reduces the uridylation activity

recombinant MBP-PUP2 (C. elegans PUP2 fused to maltose binding protein)
polyuridylation of pre-let-7 in vitro (uridylation assay, incorporation of alpha-32P-UTP) [1]: PUP2 was inactive on its own and required the addition of LIN-28 to polyuridylate pre-let-7 | uridylation assay [1]: PUP2 is a LIN-28 dependent pre-let-7 polyuridylase in vitro

pre-let-7 (in vitro transcribed)
Kd [2]: 2 µM
